Measurements: patent publication US20120028913A1 (BIOKINE THERAPEUTICS, published 2012)
Blank lines part the entries; values can stand above or below the binder they belong to. Bridges are numbered along the chain shown (N, C = ends). Where no end group is shown, it is not given here. The star is where a group is joined. Biotin = O=C1N[C@H]2[C@H](CS[C@H]2CCCCC(=O)*)N1

Experiments:
human MIG [1] = target: T1, human MIG (human, UniProt Q07325 23-125); assay: cell-based or functional assay
T1 sequence (looked up): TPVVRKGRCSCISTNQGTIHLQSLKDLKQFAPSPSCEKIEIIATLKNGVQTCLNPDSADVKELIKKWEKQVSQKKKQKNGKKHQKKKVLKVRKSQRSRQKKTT

human MIG [2] = target: T1, human MIG; assay: ELISA on chemokine-coated plates, fold over control proteins (FIG. 3)
Method: (§1) NUNC-Immuno maxisorp plates (Cat. No. 4-42404) were coated with the appropriate chemokine (0.1 ml/well, 0.1-1.0 μg/ml in 0.1 M NaHCO₃, pH 8.6), overnight at 4° C. The plates were then blocked with 0.2 ml/well of blocking buffer (5 mg/ml BSA in 0.1 NaHCO₃). Control wells were treated with blocking buffer alone, with no addition of target protein (chemokine). The plates were washed 6 times with PBST (0.1% Tween 20 in PBS), followed by incubation for 45 minutes at room temperature with 10-fold serial dilutions of individual synthetic peptides (10 pg-10 μg) with 1% BSA (PBST-BSA)/well. After the plates were washed 6 times with PBST, the bound peptides were probed by HRP-SA Conjugate, diluted 1:10,000 to 1:20,000 in PBST-BSA, 0.1 ml/well for 45 minutes at room temperature. The target-bound synthetic peptides probed with HRP-SA were quantified by DAKO TMB one-step substrate system, followed by the addition of stop solution, HCl—H₂SO₄ mixture (0.1 ml/well) ON HCl, 3N H₂SO₄). The results were analyzed by ELISA reader at OD₄₅₀.
(§2) As discussed above, the level of binding was calculated by comparing binding of the peptides to the chemokines with peptide binding to controls. Level of control binding was defined as level 1 (up to a one-fold increase in binding). This control binding level is illustrated in the Figure as a dashed line.

Human MCP-1 (MCAF) [3] = target: T2, Human MCP-1 (MCAF) (human, UniProt P13500 24-99); assay: as above
T2 construct: bought recombinant chemokine
T2 sequence (P13500 24-99 limits assumed): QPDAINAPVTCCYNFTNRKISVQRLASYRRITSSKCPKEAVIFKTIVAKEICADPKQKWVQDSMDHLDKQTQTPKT
Method: as §1, §2

[4] = target: T3, human IL-8, (72 amino acids) (human, UniProt P10145 28-99); assay: as above
T3 sequence (looked up): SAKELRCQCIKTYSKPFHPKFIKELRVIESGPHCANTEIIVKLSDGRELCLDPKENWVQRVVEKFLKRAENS
Method: as §1, §2

Human SDF-1α [5] = target: T4, Human SDF-1α (human, UniProt P48061-2 22-89); assay: as above
T4 construct: bought recombinant chemokine; also called SDF-1 alpha
T4 sequence (P48061 22-89 limits assumed): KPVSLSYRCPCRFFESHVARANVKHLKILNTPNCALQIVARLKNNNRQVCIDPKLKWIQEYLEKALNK
Method: as §1, §2

human Eotaxin [6] = target: T5, human Eotaxin (human, UniProt P51671 24-97); assay: as above
T5 construct: bought recombinant chemokine
Method: as §1, §2

Human MCP-1 (MCAF) [7] = target: T2, Human MCP-1 (MCAF); assay: Bound chemokines (at least); screen vs control proteins
[8] = target: T3, human IL-8, (72 amino acids); assay: as above
human MIG [9] = target: T1, human MIG; assay: as above
human Eotaxin [10] = target: T5, human Eotaxin; assay: peptide-containing carriers, binding vs control proteins (FIG. 1)
human Eotaxin [11] = target: T5, human Eotaxin; assay: Bound chemokines (at least); screen vs control proteins
human Eotaxin [12] = target: T5, human Eotaxin; assay: cell-based or functional assay
Human MCP-1 (MCAF) [13] = target: T2, Human MCP-1 (MCAF); assay: Bound chemokines (at least); screen vs control proteins; remark: listed apart in the source
[14] = target: T3, human IL-8, (72 amino acids); assay: as above; remark: listed apart in the source
[15] = target: T3, human IL-8, (72 amino acids); assay: cell-based or functional assay
Human SDF-1α [16] = target: T4, Human SDF-1α; assay: Bound chemokines (at least); screen vs control proteins

Level of Antagonistic Effect (T cell arrest under laminar flow on VCAM-1 plus chemokine) (human MIG [1]): 50%
Binder: SIPSHSIHSAKAGGGSK(Biotin)G [BKT-P2]

binding result (human MIG [2]): no binding
binding result (Human MCP-1 (MCAF) [3]): no binding
binding result [4]: no binding
binding result (Human SDF-1α [5]): no binding
binding result (human Eotaxin [6]): no binding
B1: BKT-P18 (peptide)
peptide: ACKESATYFCGGGSK(Biotin)G
modifications: disulfide 2-10 (inferred)
notes: general synthetic cyclic format applied; also called control peptide

binding result (Human MCP-1 (MCAF) [7]): binds
Binder: ACHASLKHRC (not fully specified (bridges); cysteine pairing not given here) [BKT-P48]

binding result [8]: binds
Binder: LLADTTHHRPWP (the carrier is not described) [BKT-P37]

binding result (Human MCP-1 (MCAF) [7]): binds
Binder: ESDLTHALHWLG [BKT-P51]

binding result (Human MCP-1 (MCAF) [7]): binds
Binder: YATQHNWRLKHE [BKT-P53]

binding result (Human MCP-1 (MCAF) [7]): binds
Binder: AHSLKSITNHGL [BKT-P44]

binding result (human MIG [9]): binds
Binder: CAHLSPHKC (not fully specified (bridges); cysteine pairing not given here) [BKT-P50]

binding result (human Eotaxin [10]): binds
B2: BKT-P22/38 (peptide)
peptide: LGFDPTSTRFYT
notes: the carrier is not described; also called BKT-P38

binding result (human Eotaxin [11]): binds
Binder: SVQTRPLFHSHF [BKT-P34]

Level of Antagonistic Effect (T cell arrest under laminar flow on VCAM-1 plus chemokine) (human Eotaxin [12]): 100%
Binder: SAGHIHEAHRPLGGGSK(Biotin)G [BKT-P39]

binding result (Human MCP-1 (MCAF) [7]): binds
Binder: WSAHIVPYSHKP [BKT-P52]

binding result (Human MCP-1 (MCAF) [13]): binds
Binder: GDFNSGHHTTTR [BKT-P27]

binding result (Human MCP-1 (MCAF) [13]): binds
Binder: HHTWDTRIWQAF [BKT-P55]

binding result (Human MCP-1 (MCAF) [7]): binds
Binder: VHTSLLQKHPLP [BKT-P26]

binding result [14]: binds
Binder: SAISDHRAHRSH [BKT-P40]

binding result (Human MCP-1 (MCAF) [13]): binds
Binder: LDYPIPQTVLHH [BKT-P46]

binding result (Human MCP-1 (MCAF) [13]): binds
Binder: TRLVPSRYYHHP [BKT-P47]

binding result (Human MCP-1 (MCAF) [7]): binds
Binder: HSACHASLKHRC (not fully specified (bridges); cysteine pairing not given here) [BKT-P49]

Level of Antagonistic Effect (T cell arrest under laminar flow on VCAM-1 plus chemokine) (human MIG [1]): 20%
Level of Antagonistic Effect (T cell arrest under laminar flow on VCAM-1 plus chemokine) [15]: 100%
Binder: HHFHLPKLRPPVGGGSK(Biotin)G [BKT-P45]

binding result (human Eotaxin [11]): binds
Binder: GVHKHFYSRWLG [BKT-P33]

binding result (Human SDF-1α [16]): binds
Binder: CHHNLSWEC (not fully specified (bridges); cysteine pairing not given here) [BKT-P56]
